Here are results for 125 sequences from the supplement of paper PMC9112550, “Optimization of the antimicrobial peptide Bac7 by deep mutational scanning” (BMC Biology, 2022).

This series concerns Escherichia coli TOP10. The series can be described thus: shrunken log2 fold change of peptide-encoding DNA abundance (4.5 h post-induction vs induction); higher = less antimicrobial activity (less host growth inhibition). The note with it: time post-induction: 4.5 h; library: site-saturation at positions 5, 18, 19, 20.
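Also: peptides expressed intracellularly from a pBAD plasmid library in pooled LB shake-flask culture, induced with 0.3% L-arabinose, DNA abundance read by NGS, three biological replicates, DESeq2 with apeglm shrinkage.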

RRIRMRPPRLPRPRPRPMWPPRP: the “shrunken log2 fold change” value worked out at 0.0917. The same measure for RRIRERPPRLPRPRPRPINPPRP: -0.00597. To RRIRERPPRLPRPRPRPAESPRP belongs -0.049; to RRIRARPPRLPRPRPRPSEVPRP, 0.258; to RRIRGRPPRLPRPRPRPWCIPRP, -0.153. The same measure for RRIRRRPPRLPRPRPRPVDFPRP: 0.178; for RRIRIRPPRLPRPRPRPVQAPRP: 0.0348; for RRIRMRPPRLPRPRPRPWMYPRP: -0.0417. As to RRIRLRPPRLPRPRPRPHNDPRP, the “shrunken log2 fold change” value is -0.452. As for RRIRIRPPRLPRPRPRPVGRPRP, the “shrunken log2 fold change” value was found to be 0.0883.

Consider RRIRNRPPRLPRPRPRPNCTPRP, for which the “shrunken log2 fold change” value was -0.191. As to RRIRQRPPRLPRPRPRPVLMPRP, the “shrunken log2 fold change” value is 0.111. Regarding RRIRFRPPRLPRPRPRPQCAPRP, the “shrunken log2 fold change” value turned out to be 0.057. For the sequence RRIRTRPPRLPRPRPRPYCRPRP, the “shrunken log2 fold change” value is -0.149. To RRIRHRPPRLPRPRPRPHKNPRP belongs -0.263; to RRIRCRPPRLPRPRPRPSKFPRP, -0.17. Take RRIRDRPPRLPRPRPRPGWYPRP: the “shrunken log2 fold change” value turned out to be 0.178.

For RRIRVRPPRLPRPRPRPTYLPRP, the “shrunken log2 fold change” value turned out to be 0.00624. With RRIRTRPPRLPRPRPRPAPLPRP, the “shrunken log2 fold change” value worked out at 0.368. To RRIRTRPPRLPRPRPRPRFNPRP belongs -0.286; to RRIRPRPPRLPRPRPRPVIHPRP, -0.435. To RRIRPRPPRLPRPRPRPPSHPRP belongs 0.0789; to RRIRVRPPRLPRPRPRPIEYPRP, -0.05; to RRIRLRPPRLPRPRPRPTRAPRP, 0.498. The same measure for RRIRMRPPRLPRPRPRPAASPRP: 1.25; for RRIRFRPPRLPRPRPRPKYTPRP: -0.657; for RRIRMRPPRLPRPRPRPLEQPRP: 0.446.

As to RRIRMRPPRLPRPRPRPNMHPRP, the “shrunken log2 fold change” value is -0.0148. RRIRDRPPRLPRPRPRPPIVPRP: the “shrunken log2 fold change” value was -0.161. The same measure for RRIRNRPPRLPRPRPRPPLMPRP: -0.0745. RRIRSRPPRLPRPRPRPTQSPRP: the “shrunken log2 fold change” value was 0.449. The same measure for RRIRPRPPRLPRPRPRPHQGPRP: -0.213.

For the sequence RRIRERPPRLPRPRPRPSSKPRP, the “shrunken log2 fold change” value was -0.639.

In the case of RRIRMRPPRLPRPRPRPWVRPRP, the “shrunken log2 fold change” value worked out at 0.0882. To RRIRIRPPRLPRPRPRPKRHPRP belongs -0.0187.

Consider RRIRTRPPRLPRPRPRPEATPRP, for which the “shrunken log2 fold change” value is 1.05. The same measure for RRIRKRPPRLPRPRPRPSYSPRP: -0.413. To RRIRTRPPRLPRPRPRPKNQPRP belongs -0.274.

Consider RRIRMRPPRLPRPRPRPNVNPRP, for which the “shrunken log2 fold change” value was 0.148. To RRIRYRPPRLPRPRPRPHTPPRP belongs -0.346. The same measure for RRIRYRPPRLPRPRPRPNTSPRP: -0.423; for RRIRNRPPRLPRPRPRPTVMPRP: 0.178; for RRIRRRPPRLPRPRPRPTGTPRP: 1.07. RRIRGRPPRLPRPRPRPSWPPRP: the “shrunken log2 fold change” value turned out to be 0.384. As for RRIRYRPPRLPRPRPRPFIRPRP, the “shrunken log2 fold change” value is -0.942.

Turning to RRIRTRPPRLPRPRPRPSASPRP, the “shrunken log2 fold change” value is -0.0732. For the sequence RRIRDRPPRLPRPRPRPDPIPRP, the “shrunken log2 fold change” value is 0.278.

RRIRRRPPRLPRPRPRPSKYPRP: the “shrunken log2 fold change” value is -0.483. Take RRIRVRPPRLPRPRPRPRRCPRP: the “shrunken log2 fold change” value was -0.0137. With RRIRVRPPRLPRPRPRPLDNPRP, the “shrunken log2 fold change” value is -0.0763.

With RRIRSRPPRLPRPRPRPKANPRP, the “shrunken log2 fold change” value amounted to 0.126. As for RRIRRRPPRLPRPRPRPSGFPRP, the “shrunken log2 fold change” value amounted to 0.0452.

Take RRIRARPPRLPRPRPRPTMHPRP: the “shrunken log2 fold change” value is 0.354. To RRIRMRPPRLPRPRPRPIGHPRP belongs 0.0299; to RRIRDRPPRLPRPRPRPKRIPRP, 0.133. As to RRIRSRPPRLPRPRPRPEERPRP, the “shrunken log2 fold change” value is 0.826. To RRIRGRPPRLPRPRPRPVCMPRP belongs 0.406; to RRIRIRPPRLPRPRPRPTPWPRP, 0.154; to RRIRWRPPRLPRPRPRPFIYPRP, -0.467.

Consider RRIRVRPPRLPRPRPRPNIRPRP, for which the “shrunken log2 fold change” value is -0.664. To RRIRVRPPRLPRPRPRPKWDPRP belongs 0.0182; to RRIRSRPPRLPRPRPRPFPDPRP, -0.319; to RRIRIRPPRLPRPRPRPGKHPRP, -0.222.

As to RRIRFRPPRLPRPRPRPHHQPRP, the “shrunken log2 fold change” value was -0.963. To RRIRYRPPRLPRPRPRPCDMPRP belongs -0.01; to RRIRARPPRLPRPRPRPDCNPRP, 0.606; to RRIRHRPPRLPRPRPRPRWKPRP, 0.00489.

Take RRIRGRPPRLPRPRPRPPKTPRP: the “shrunken log2 fold change” value was found to be 1.15. The same measure for RRIRNRPPRLPRPRPRPNPAPRP: 0.028; for RRIRHRPPRLPRPRPRPDRCPRP: -0.205.

Regarding RRIRYRPPRLPRPRPRPEVVPRP, the “shrunken log2 fold change” value is -0.219. With RRIRERPPRLPRPRPRPDKQPRP, the “shrunken log2 fold change” value came to 0.0325. To RRIRRRPPRLPRPRPRPGCSPRP belongs 0.344; to RRIRHRPPRLPRPRPRPNSDPRP, -0.0908; to RRIRSRPPRLPRPRPRPFQTPRP, -0.266. Turning to RRIRIRPPRLPRPRPRPKFKPRP, the “shrunken log2 fold change” value was -0.0251. The same measure for RRIRKRPPRLPRPRPRPIRNPRP: -0.34; for RRIRVRPPRLPRPRPRPRKEPRP: -0.0286.

Take RRIRCRPPRLPRPRPRPECKPRP: the “shrunken log2 fold change” value is -0.255. To RRIRERPPRLPRPRPRPFLIPRP belongs -0.728. The same measure for RRIRQRPPRLPRPRPRPHFPPRP: -0.216; for RRIRARPPRLPRPRPRPRFVPRP: 0.457; for RRIRNRPPRLPRPRPRPCNCPRP: -0.00865. The same measure for RRIRYRPPRLPRPRPRPTLHPRP: -0.749; for RRIRWRPPRLPRPRPRPKYEPRP: -0.0182. Consider RRIRDRPPRLPRPRPRPYAAPRP, for which the “shrunken log2 fold change” value is -0.2.

RRIRVRPPRLPRPRPRPRWKPRP: the “shrunken log2 fold change” value was found to be 0.328. The same measure for RRIRQRPPRLPRPRPRPNYHPRP: -0.676; for RRIRYRPPRLPRPRPRPDANPRP: -0.114; for RRIRVRPPRLPRPRPRPWMRPRP: 0.731.

RRIRGRPPRLPRPRPRPRQLPRP: the “shrunken log2 fold change” value came to 0.549.

In the case of RRIRWRPPRLPRPRPRPDNGPRP, the “shrunken log2 fold change” value turned out to be 0.0563.

Regarding RRIRNRPPRLPRPRPRPGMNPRP, the “shrunken log2 fold change” value is -0.02. The same measure for RRIRVRPPRLPRPRPRPAKKPRP: 0.0179; for RRIRMRPPRLPRPRPRPQSCPRP: -0.00838; for RRIRHRPPRLPRPRPRPGMEPRP: -0.0685. The same measure for RRIRKRPPRLPRPRPRPFMYPRP: -0.401. The same measure for RRIRDRPPRLPRPRPRPDIRPRP: -0.00151; for RRIRCRPPRLPRPRPRPHCQPRP: 0.0911. For RRIRRRPPRLPRPRPRPHNLPRP, the “shrunken log2 fold change” value was -0.176. RRIRNRPPRLPRPRPRPHKNPRP: the “shrunken log2 fold change” value is -0.237. The same measure for RRIRYRPPRLPRPRPRPITQPRP: -0.532; for RRIRYRPPRLPRPRPRPLQGPRP: -0.0139. Turning to RRIRMRPPRLPRPRPRPPRMPRP, the “shrunken log2 fold change” value was 0.893.

In the case of RRIRFRPPRLPRPRPRPKDHPRP, the “shrunken log2 fold change” value is -0.179. For the sequence RRIRMRPPRLPRPRPRPCHVPRP, the “shrunken log2 fold change” value was -0.0132. For the sequence RRIRERPPRLPRPRPRPSGCPRP, the “shrunken log2 fold change” value was found to be 0.0787. The same measure for RRIRWRPPRLPRPRPRPWNAPRP: -0.176; for RRIRARPPRLPRPRPRPCDKPRP: -0.152. The same measure for RRIRRRPPRLPRPRPRPPISPRP: 0.0255; for RRIRRRPPRLPRPRPRPFASPRP: -0.0314.

As to RRIRERPPRLPRPRPRPHPDPRP, the “shrunken log2 fold change” value was found to be 0.0161.

As for RRIRERPPRLPRPRPRPHFDPRP, the “shrunken log2 fold change” value was -0.14. As for RRIRWRPPRLPRPRPRPEGDPRP, the “shrunken log2 fold change” value turned out to be 0.166.

With RRIRRRPPRLPRPRPRPADSPRP, the “shrunken log2 fold change” value is -0.0331. To RRIRRRPPRLPRPRPRPGWGPRP belongs 0.497; to RRIRWRPPRLPRPRPRPLHWPRP, 0.296. For RRIRIRPPRLPRPRPRPLAPPRP, the “shrunken log2 fold change” value amounted to 0.157. On to RRIRHRPPRLPRPRPRPSDCPRP, for which the “shrunken log2 fold change” value was -0.126. The same measure for RRIRCRPPRLPRPRPRPTDCPRP: 0.0318. Turning to RRIRPRPPRLPRPRPRPKLLPRP, the “shrunken log2 fold change” value was -0.0549. To RRIRVRPPRLPRPRPRPIVQPRP belongs -0.223. To RRIRWRPPRLPRPRPRPDGEPRP belongs 0.0237; to RRIRERPPRLPRPRPRPVEIPRP, -0.0716. To RRIRMRPPRLPRPRPRPERPPRP belongs 0.338.
